The source of these data is patent US20100158968A1.

In experiment [1] the target is mitogen-activated protein kinase-activated protein kinase 2 (human MK2) (human), P49137. Briefly: kinase inhibition, radiometric assay. Conditions: modification not given.
Experiment [2] has as its target PKCδ (h) (protein kinase C) (human), Q05655. Briefly: cell-based or functional assay.

Broadly, the IC50 is the concentration at which inhibition is half-maximal.

Sequence of PKCδ (h) (protein kinase C) (human), Q05655 (Q05655 whole entry, stated change not applied): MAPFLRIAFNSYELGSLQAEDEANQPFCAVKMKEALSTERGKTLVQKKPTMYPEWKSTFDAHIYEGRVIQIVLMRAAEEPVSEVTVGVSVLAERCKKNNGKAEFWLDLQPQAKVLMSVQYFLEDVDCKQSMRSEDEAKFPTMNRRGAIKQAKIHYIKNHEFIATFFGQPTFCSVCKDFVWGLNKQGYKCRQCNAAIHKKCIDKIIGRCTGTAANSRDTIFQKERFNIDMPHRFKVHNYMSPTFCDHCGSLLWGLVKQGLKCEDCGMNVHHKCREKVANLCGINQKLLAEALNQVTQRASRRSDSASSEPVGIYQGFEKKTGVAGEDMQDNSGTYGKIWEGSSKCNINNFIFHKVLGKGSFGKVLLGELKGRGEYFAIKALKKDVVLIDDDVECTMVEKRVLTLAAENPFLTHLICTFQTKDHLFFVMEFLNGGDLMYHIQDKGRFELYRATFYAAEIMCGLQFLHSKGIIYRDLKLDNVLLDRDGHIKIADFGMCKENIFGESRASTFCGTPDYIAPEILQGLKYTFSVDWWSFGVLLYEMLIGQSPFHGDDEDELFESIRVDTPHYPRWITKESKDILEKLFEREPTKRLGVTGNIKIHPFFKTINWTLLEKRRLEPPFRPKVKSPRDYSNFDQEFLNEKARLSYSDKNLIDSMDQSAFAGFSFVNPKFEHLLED
Sequence of mitogen-activated protein kinase-activated protein kinase 2 (human MK2) (human), P49137 (P49137 46-400): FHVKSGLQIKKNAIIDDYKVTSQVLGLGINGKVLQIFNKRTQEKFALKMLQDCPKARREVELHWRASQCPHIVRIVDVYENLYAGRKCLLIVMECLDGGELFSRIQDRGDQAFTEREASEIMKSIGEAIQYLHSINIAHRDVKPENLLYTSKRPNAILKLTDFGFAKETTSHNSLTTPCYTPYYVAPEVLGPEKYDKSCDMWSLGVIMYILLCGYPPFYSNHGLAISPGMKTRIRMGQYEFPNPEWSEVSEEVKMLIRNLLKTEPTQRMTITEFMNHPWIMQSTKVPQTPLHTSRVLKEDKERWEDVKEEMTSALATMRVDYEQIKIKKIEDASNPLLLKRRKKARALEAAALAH

In the case of YARAAARQARAKALNRQLAVA, the half-maximal inhibitory concentration (IC50) in experiment [1] turned out to be 18.9 µM.
In turn, FAKLAARLYRKALARQLGVAA came in with a 50% inhibitory concentration (IC50) in experiment [1] of 1.77 µM.
Take WLRRIKAWLRRIKALNRQLGVAA: the Kinase Activity, peptide at 30 µM, radiometric assay in experiment [2] turned out to be 11%. The IC50 in experiment [1] amounted to 0.737 µM.
In experiment [2], KAFAKLAARLYRLARQLGVAA returned a Kinase Activity, peptide at 100 µM, radiometric assay of 24%.
Consider YARAAARQARAKALARQLAVA, for which the IC50 in experiment [1] is 28.4 µM.
With YARAAARQARALARQLGVAA, the Kinase Activity, peptide at 300 µM, radiometric assay in experiment [2] came to 101%.
For the molecule FAKLAARLYRLARQLGVAA, in experiment [2], the Kinase Activity, peptide at 100 µM, radiometric assay worked out at 40%.
As for YARAAARQARALNRQLGVAA, the Kinase Activity, peptide at 300 µM, radiometric assay in experiment [2] was 105%.
